Data as given in patent US20230212305A1, “ANTI-ABCG2 ANTIBODIES AND USES THEREOF” (Kenjockety Biotechnology, Inc., priority 2020, published 2023).
“Also recorded” adds a separate entry of the source.

B1: G2.343 rat: anti-ABCG2 antibody raised in rat (antibody, V domains shown)
VH: SVQLKESGPGLVQPSQTLSLTCTVSGFSLTSNGVSWVRQPPGKGLEWIAAISSGGSTYYNSVLKSRLSISRDTSKSQVFLKMNSLQTEDTAIYFCTRDTYYGYNQIPFVYWGQGTLVTVSS
VL: DVVLAQTPPTLSATIGQSVSISCRSSQSLLHSSGNTYLNWLLQRPGQPPQLLIYLVSRLESRVPNRFSGSGSGTDFTLKISGVEAEDLGVYYCVQSTHAPRTFGGGTKLELK
B2: G2.65 mouse: anti-ABCG2 antibody raised in mouse, listed in Table 2 (antibody, V domains shown)
VH: QGQMHQSGAELVKPGASVKLSCKTSGFTFNSGYISWLKQKPRQSLEWIAWIYAGTGISNFNQKFTGKAQLTVDTSSSTAYMQLSSLTSADSAIYFCASGARKTLDFWGQGTSVTVSS
VL: DIQMTQSSSYLSVSVGGRVTITCKASDQINYWLAWYQQKPGNAPRLLISGATSLETGVPSRFSGSGSGKDYTLSITSFQTEDVATYYCQQYWTTPYTFGGGTKVEIK
B3: G2.631 rat: anti-ABCG2 antibody raised in rat (antibody, V domains shown)
VH: EVKLLESGGGLVQSGRSLKLSCAASGFIFSRFYMAWVRQAPRKGLEWVAYISNGAGSTYYRESVKGRFIISRDNAKSTLYLQMDSLRSEDTATYYCTTVAAPWNYVMDGWGQGASVTVSS
VL: NIQITQSPSLLSASVGDRVTLSCKGSQNINNYLAWYQQKLGEAPKLLIYKTNSLHTGIPSRFSGSGSGTDYTLTISSLHSEDLATYYCYQYNNGYTFGAGTKLELK
B4: G2.302 mouse: anti-ABCG2 antibody raised in mouse, listed in Table 2 (antibody, V domains shown)
VH: QIQLQQSGPELVRPGASVKISCKASGYTFTDYYINWVKQRPGQGLEWIGWIYPGNVNVKYNEKFKGKATLTVDTSSSTGYMQLRSLTSEDSAVYFCARSIGLRYFDNWGQGTTLTVSS
VL: EKVLTQSPAIMSASLGEKVTMSCRASSSVHYMYWHQQKSDASPRLWIYYTSNLAPGVPARFSGSGSGNFYSLTISSVEDEDGATYYCQQFTTSTWTFGGGTKLEIK
B5: G2.333 rat: anti-ABCG2 antibody raised in rat (antibody, V domains shown)
VH: EIQLQESGPGLVKPSQSLSLTCSVTGYTITSGYDWTWLRKFPGNKMEWMGYISYSGFTNYNPSLRSRISISRDTSKNQFFLQLNSVTTEDTATYYCARTRGYNPFPYWGQGTLVTVSS
VL: DIQMTQSPSLLSASVGDRVSLSCKAGRNVNNYLAWYQQKLGKPPKLLIYNSNSLQTGIPSRFSGSGSGTDFTLTISSLQPEDVATYFCQQYNSWTTFGSGTKLEIK

Experiments:
Panc1/T300 cells = assay: Xenograft study with topotecan-resistant Panc1/T300 cells; type: in vivo
Experimental: PANC1 (ATCC, CRL-1469) is a pancreatic ductal epithelial carcinoma cell line. The topotectan-resistant Panc1/T300 cells were developed by continuously incubating PANC1 cells in the culture medium containing increasing concentration of topotecan of 25, 50, 100, 200 and 300 nM. […] The arrows indicate the dosing schedule.

ABCG2 [1] = target: T1, ABCG2 (Homo sapiens, UniProt Q9UNQ0); type: cell-based
T1 construct: expressed in transfected cells
T1 sequence (Q9UNQ0 1-655): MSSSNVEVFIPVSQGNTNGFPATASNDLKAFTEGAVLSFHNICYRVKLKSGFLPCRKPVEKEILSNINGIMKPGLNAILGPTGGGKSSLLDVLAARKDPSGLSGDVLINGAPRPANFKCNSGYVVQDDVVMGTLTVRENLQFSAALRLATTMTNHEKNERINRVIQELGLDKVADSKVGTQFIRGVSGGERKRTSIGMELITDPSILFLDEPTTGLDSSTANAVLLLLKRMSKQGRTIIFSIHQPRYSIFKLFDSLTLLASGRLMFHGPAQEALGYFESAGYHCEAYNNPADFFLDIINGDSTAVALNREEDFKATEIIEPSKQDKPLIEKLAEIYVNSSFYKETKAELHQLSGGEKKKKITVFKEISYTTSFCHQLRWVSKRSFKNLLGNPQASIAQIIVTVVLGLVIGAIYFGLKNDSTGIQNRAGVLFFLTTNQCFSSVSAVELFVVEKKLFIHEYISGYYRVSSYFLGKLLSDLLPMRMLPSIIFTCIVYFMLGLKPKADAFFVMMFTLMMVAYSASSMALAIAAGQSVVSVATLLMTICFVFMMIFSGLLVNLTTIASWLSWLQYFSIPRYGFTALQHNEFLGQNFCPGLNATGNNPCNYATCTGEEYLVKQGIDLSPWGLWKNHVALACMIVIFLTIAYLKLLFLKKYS
How it was run: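 293T cells overexpressing ABCG2 (2×10e6 cells/ml, phenol red-free DMEM) treated with antibodies or inhibitors at 1 μM final, then loaded with 2.5 μM mitoxantrone 1 h at 37° C. After washing, mitoxantrone retention read as fluorescence (ex 635, em 647 nm) to measure efflux blockade.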

ABCG2 [2] = target: T1, ABCG2; assay: Flow cytometry binding to 293T cells overexpressing human ABCG2 (293T_ABCG2_OX); parameters: key to Binding by FACS: binding=“+”; non-significant binding=“−”; conditions: for binding to 293 cells overexpressing human ABCG2 (hG2): FACS, FIG. 1
How it was run: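 Antibodies serially diluted (from 100 ug/mL or about 666 nM) and incubated 30 min on ice with 293T cells stably expressing human or cynomolgus ABCG2, in PBS/2% FBS/0.02% azide. Bound antibody detected by PE anti-human IgG F(ab′)2, 20 min on ice, flow cytometry; EC50 = concentration giving half-maximal signal.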

cynomolgus ABCG2 = assay: Flow cytometry binding to 293T cells overexpressing cynomolgus ABCG2; parameters: key to Cynomolgus ABCG2 binding: binding=“+”; non-significant binding=“−”; conditions: for binding to 293 cells overexpressing cynomolgus ABCG2 (cG2): FACS, FIG. 1
Chain of cynomolgus ABCG2 (as listed by the source): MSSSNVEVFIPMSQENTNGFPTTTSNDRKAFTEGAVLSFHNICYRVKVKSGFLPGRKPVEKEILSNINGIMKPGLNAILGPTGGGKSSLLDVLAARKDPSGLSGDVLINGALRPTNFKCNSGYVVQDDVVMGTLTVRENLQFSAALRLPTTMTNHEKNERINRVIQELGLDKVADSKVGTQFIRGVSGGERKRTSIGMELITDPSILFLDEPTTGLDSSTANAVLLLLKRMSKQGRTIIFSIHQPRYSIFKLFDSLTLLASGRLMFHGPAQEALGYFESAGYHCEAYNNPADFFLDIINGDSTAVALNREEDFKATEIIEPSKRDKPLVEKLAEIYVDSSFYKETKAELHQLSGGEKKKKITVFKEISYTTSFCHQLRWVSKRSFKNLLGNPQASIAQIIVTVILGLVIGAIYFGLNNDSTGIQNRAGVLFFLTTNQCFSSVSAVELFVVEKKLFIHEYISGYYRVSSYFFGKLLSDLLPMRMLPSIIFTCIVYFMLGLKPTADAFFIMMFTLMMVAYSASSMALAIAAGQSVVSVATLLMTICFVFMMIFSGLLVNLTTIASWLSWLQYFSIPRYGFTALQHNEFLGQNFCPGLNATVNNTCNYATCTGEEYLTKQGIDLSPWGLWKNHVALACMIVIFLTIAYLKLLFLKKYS
How it was run: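 293T cells stably overexpressing cynomolgus ABCG2 were incubated on ice for 30 min with antibody at 5 ug/mL or serial dilutions from 100 ug/mL. Bound antibody detected with PE-labelled anti-human IgG F(ab′)2 by flow cytometry; EC50 taken as concentration giving half-maximal response.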

A549 (ATCC, CCL-185) = assay: Xenograft study with NSCLC cell line A549; type: in vivo
293T_ABCG2_OX cells = type: cell-based, human; conditions: for Killing: cell killing by topotecan on 293T_ABCG2_OX cells, viability relative to IgG control
Experimental: Cytotoxicity Assays. The effect of antibodies on topotecan cytotoxicity was evaluated on 293T_ABCG2_OX cells, 293T cells stably transfected to express ABCG2. Cells were plated in 0.05 mL of Assay Media (DMEM+10% FBS) at 5000 cells/well in white, flat bottom 96-well tissue culture plates. Topotecan was prepared at 2× final assay concentration by serial dilution from 200 uM in assay media containing test antibodies or control antibodies at 100 ug/mL (2× final concentration), or Fumitremorgin C, a small molecule ABCG2 inhibitor at 20 uM (2× final concentration). An equivalent volume (0.05 mL) of the topotecan/antibody mixture was added to the 293T_ABCG2_OX cells in 96-well plates. The plates were then incubated at 37° C., in 5% CO2. After 72-96 hr plates were equilibrated to room temperature and cell viability assessed using Promega® CellTiter-Glo® Luminescent Cell Viability Assay according to the manufacturer's recommended protocol. Luminescence was measured on a Molecular Devices® FlexStation® 3 Multi-Mode Microplate Reader and data analyzed using GraphPad Prism 8.0 software. Half maximal inhibitory concentration (1050) is the concentration of drug (topotecan or other chemotherapy cytotoxic agent) where the response (cell growth) is reduced by 50%.

HEK 293 naïve cells = assay: FACS binding to HEK 293 naïve cells; parameters: species or system human; conditions: FIG. 1

Molecule	tumor volume, in combination with topotecan (Panc1/T300 cells)	Block Efflux (ABCG2 [1])	Binding by FACS (ABCG2 [2]; 293T_ABCG2_OX cells)	Cynomolgus ABCG2 binding (cynomolgus ABCG2)	tumor volume, in combination with topotecan (A549 (ATCC, CCL-185))	Killing (293T_ABCG2_OX cells)	binding to 293 cells overexpressing human ABCG2 (hG2) (ABCG2 [2])	binding to 293 cells overexpressing cynomolgus ABCG2 (cG2) (cynomolgus ABCG2)	binding to 293 naïve cells (HEK 293 naïve cells)	effect on topotecan cytotoxicity on 293T_ABCG2_OX cells (293T_ABCG2_OX cells)	efflux inhibition activity (ABCG2 [1])	binding to 293T cells overexpressing human ABCG2 (ABCG2 [2]; in words, FIGS. 7-11, 21)	binding to 293T cells overexpressing cynomolgus ABCG2 (cynomolgus ABCG2; in words, FIGS. 7-11, 21)	Kd (ABCG2 [2]; 293T_ABCG2_OX cells, read-out: Affinity for human ABCG2)	efficacy in combination with CPT11 (Irinotecan) (A549 (ATCC, CCL-185); compared with 5D3/CPT11 combination)
B1	efficacious in reducing tumor volume	+	+	+	efficacious in reducing tumor volume; also recorded: particularly efficacious										
B2		−	+	−		− (≥75% of IgG control)	binds	does not significantly bind	does not significantly bind						
B3		+	+		efficacious in reducing tumor volume	++ (viability ≥10% and <30% of IgG control)				significantly increased the cytotoxic activity of topotecan	strong efflux inhibition activity	strong binding	strong binding		
B4		−	+	+		− (≥75% of IgG control)	binds	binds	does not significantly bind						
B5		+	+	+		+ (viability ≥30% and <50% of IgG control)					strong efflux inhibition activity			33 nM	significantly exceeds the efficacy of the 5D3/CPT11 combination
